The text below walks through data of patent US20240132624A1 (Ablynx, published 2024).

The target in experiment [1] is T1, human FcRn/b2M (human, UniProt P61769 21-119, biotinylated).
T1 construct: bought recombinant biotinylated protein (ACRO FCM-H82W4 or Immunitrack ITF01); also called hFcRn; hFcRn/hb2M
Put plainly: SPR pH 6.0.
Description: (§1) All kinetic measurements have been performed on ProteOn XPR36 (BioRad Laboratories, Inc.), MASS-2 (Sierra sensors, Gmbh) or SPR-32 (Bruker Corporation). […] The phytip purified periplasmic extracts were diluted 1:10 in running buffer (CPA+150 mM NaCl+0.005% Tw20 at pH 5.5, pH 6.0 or pH 7.4) and injected over the ligand surfaces (association: 120 s at 45 μL/min; dissociation: 600s-3600 s at 45 μL/min). Experiments were carried out at 25° C.

In experiment [2] the target is T2, cyno FcRn/b2M (cyno, UniProt Q8SPV9 24-297; Q8SPW0 21-119, biotinylated).
T2 construct: bought recombinant biotinylated protein (Immunitrack ITF05 or ACRO FCM-C82W5); also called cFcRn; cFcRn/cb2M
T2 sequence (Q8SPV9 24-297 limits assumed, chain 1 of 2): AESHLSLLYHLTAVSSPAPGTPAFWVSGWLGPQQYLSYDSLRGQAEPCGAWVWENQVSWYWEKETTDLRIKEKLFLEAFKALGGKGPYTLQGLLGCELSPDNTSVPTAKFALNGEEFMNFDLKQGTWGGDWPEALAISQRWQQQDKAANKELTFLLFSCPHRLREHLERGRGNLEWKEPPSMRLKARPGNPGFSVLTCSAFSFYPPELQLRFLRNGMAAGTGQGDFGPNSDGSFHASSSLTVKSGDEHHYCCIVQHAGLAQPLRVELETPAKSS
T2 sequence (Q8SPW0 21-119 limits assumed, chain 2 of 2): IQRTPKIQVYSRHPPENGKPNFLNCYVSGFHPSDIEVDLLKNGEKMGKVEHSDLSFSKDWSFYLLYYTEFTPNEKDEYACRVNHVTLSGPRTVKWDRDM
As to the kind of experiment: SPR pH 6.0.
Description: as §1

Experiment [3] has as its target T1, human FcRn/b2M. Put plainly: SPR pH 7.4.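 Note: surface plasmon resonance kinetics, periplasmic extracts diluted 1:10 flowed over immobilized target at 25 °C, 120 s association then 600–3600 s dissociation, buffer with 150 mM NaCl.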
Description: as §1
Experiment [4] deals with T2, cyno FcRn/b2M. As to the kind of experiment: SPR pH 7.4.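 Note: surface plasmon resonance kinetics, periplasmic extracts diluted 1:10 flowed over immobilized target at 25 °C, 120 s association then 600–3600 s dissociation, buffer with 150 mM NaCl.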
Description: as §1
In experiment [5] the target is T1, human FcRn/b2M. As to the kind of experiment: SPR off-rate; pH 7.4 vs pH 6.0.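 Note: surface plasmon resonance with diluted periplasmic extracts flowed over ligand surfaces, 120 s association and 600–3600 s dissociation at 25 °C, running buffer containing 150 mM NaCl.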
Description: as §1
For experiment [6], the target named is T2, cyno FcRn/b2M. As to the kind of experiment: SPR off-rate; pH 7.4 vs pH 6.0.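 Note: surface plasmon resonance with diluted periplasmic extracts flowed over ligand surfaces, 120 s association and 600–3600 s dissociation at 25 °C, running buffer containing 150 mM NaCl.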
Description: as §1
Experiment [7] has as its target T1, human FcRn/b2M. Put plainly: SPR pH 6.0. This is another data set of the same source.

T1 sequence (chain, as listed by the source limits assumed, chain 1 of 2): as the sequence (Q8SPV9 24-297 limits assumed, chain 1 of 2) above, with D39N, Q44E, S99G, G189S, N190S, M217L, T269S counted along it
T1 sequence (P61769 21-119 limits assumed, chain 2 of 2): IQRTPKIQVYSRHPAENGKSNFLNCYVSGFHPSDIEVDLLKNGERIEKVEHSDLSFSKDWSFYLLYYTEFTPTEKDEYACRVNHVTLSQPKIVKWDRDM

B1: T0263018B11 Y32S (VHH, name in Kabat numbering)
VHH: EVQLVESGGGVVQPGGSLRLSCAASGFTFSSSAMYWVRQAPGKGLEWVSAISSGGGSTDYADSVKGRFTISRDNSKNTLYLQMNSLRPEDTALYYCAADTLYTSLTWYSYWGQGTLVTVSS
notes: FLAG3-His6 tagged
For orientation: koff means the rate constant with which the complex falls apart. For the molecule B1, the koff in experiment [1] is 0.0054 s⁻¹; in experiment [2] it was 0.0028 s⁻¹; in experiment [3], 0.19 s⁻¹; in experiment [4] it was 0.14 s⁻¹. Besides, the figures for the “kd ratio pH 7.4/6.0” value in experiment [5] and in experiment [6] were 35 and 52, respectively.

B2: T026301074 (VHH, name in Kabat numbering)
VHH: EVQLVESGGGVVQPGGSLRLSCAASTFTFSEYAMYWVRQAPGKGLEWVSAISSGGGSTDYADSVKGRFTISRDNSKNTLYLQMNSLRPEDTALYYCAADTLYTDLTWYSYWGQGTLVTVSS
notes: tagless
As for B2, in experiment [7], the dissociation rate constant (koff) was found to be 0.013 s⁻¹.

B3: T026301081 (VHH, name in Kabat numbering)
VHH: EVQLVESGGGVVQPGGSLRLSCAASTFTFSSYAMYWVRQAPGKGLEWVSAISSGGGSTDYADSVKGRFTISRDNSKNTLYLQMNSLRPEDTALYYCAADTLYTSLTSYSYWGQGTLVTVSS
notes: tagless
Take B3: the koff in experiment [7] came out at 0.0088 s⁻¹.

B4: T026301067 (VHH, name in Kabat numbering)
VHH: EVQLVESGGGVVQPGGSLRLSCAASTFTFSSYDMYWVRQAPGKGLEWVSAISQGGGSTDYADSVKGRFTISRDNSKNTLYLQMNSLRPEDTALYYCAADTLYTSLTKYSYWGQGTLVTVSS
notes: tagless
Molecule B4 came in with a koff in experiment [7] of 0.0061 s⁻¹. The koff values of the last two molecules are within 1.5-fold of each other.

B5: T026301052 (VHH, name in Kabat numbering)
VHH: EVQLVESGGGVVQPGGSLRLSCAASTFTFSEYDMYWVRQAPGKGLEWVSAISSGGGSTDYADSVKGRFTISRDNSKNTLYLQMNSLRPEDTALYYCAADTLYTSLTWYSYWGQGTLVTVSS
notes: tagless
Take B5: the koff in experiment [7] was found to be 0.0056 s⁻¹.

B6: T0263018B11 Y100dF (VHH, name in Kabat numbering)
VHH: EVQLVESGGGVVQPGGSLRLSCAASGFTFSSYAMYWVRQAPGKGLEWVSAISSGGGSTDYADSVKGRFTISRDNSKNTLYLQMNSLRPEDTALYYCAADTLYTSLTWFSYWGQGTLVTVSS
notes: FLAG3-His6 tagged
Consider B6, for which the koff in experiment [1] is 0.0023 s⁻¹; in experiment [2] it was 0.0017 s⁻¹; in experiment [3], 0.06 s⁻¹; in experiment [4], 0.057 s⁻¹. In addition, the “kd ratio pH 7.4/6.0” value in experiment [5] turned out to be 26; in experiment [6], 34.

B7: T026301059 (VHH, name in Kabat numbering)
VHH: EVQLVESGGGVVQPGGSLRLSCAASGFTFSEYDMYWVRQAPGKGLEWVSAISQGGGSTDYADSVKGRFTISRDNSKNTLYLQMNSLRPEDTALYYCAADTLYTDLTSYSYWGQGTLVTVSS
notes: tagless
Consider B7, for which the koff in experiment [7] was found to be 0.039 s⁻¹.

B8: T026301054 (VHH, name in Kabat numbering)
VHH: EVQLVESGGGVVQPGGSLRLSCAASTFTFSEYAMYWVRQAPGKGLEWVSAISQGGGSTDYADSVKGRFTISRDNSKNTLYLQMNSLRPEDTALYYCAADTLYTDLTWYSYWGQGTLVTVSS
notes: tagless
As for B8, the koff in experiment [7] came out at 0.041 s⁻¹.

B9: T026301050 (VHH, name in Kabat numbering)
VHH: EVQLVESGGGVVQPGGSLRLSCAASTFTFSSYAMYWVRQAPGKGLEWVSAISQGGGSTDYADSVKGRFTISRDNSKNTLYLQMNSLRPEDTALYYCAADTLYTDLTWYSYWGQGTLVTVSS
notes: tagless
Molecule B9 returned a koff in experiment [7] of 0.029 s⁻¹.

B10: T026301072 (VHH, name in Kabat numbering)
VHH: EVQLVESGGGVVQPGGSLRLSCAASGFTFSSYDMYWVRQAPGKGLEWVSAISQGGGSTDYADSVKGRFTISRDNSKNTLYLQMNSLRPEDTALYYCAADTLYTDLTSYSYWGQGTLVTVSS
notes: tagless
In experiment [7], B10 returned a koff of 0.015 s⁻¹.

B11: T026301060 (VHH, name in Kabat numbering)
VHH: EVQLVESGGGVVQPGGSLRLSCAASGFTFSEYAMYWVRQAPGKGLEWVSAISSGGGSTDYADSVKGRFTISRDNSKNTLYLQMNSLRPEDTALYYCAADTLYTDLTSYSYWGQGTLVTVSS
notes: tagless
In experiment [7], B11 registered a koff of 0.034 s⁻¹.

B12: T026301051 (VHH, name in Kabat numbering)
VHH: EVQLVESGGGVVQPGGSLRLSCAASGFTFSSYDMYWVRQAPGKGLEWVSAISSGGGSTDYADSVKGRFTISRDNSKNTLYLQMNSLRPEDTALYYCAADTLYTDLTWYSYWGQGTLVTVSS
notes: tagless
Regarding B12, the koff in experiment [7] was 0.012 s⁻¹.

B13: T0263018B11 Y102T (VHH, name in Kabat numbering)
VHH: EVQLVESGGGVVQPGGSLRLSCAASGFTFSSYAMYWVRQAPGKGLEWVSAISSGGGSTDYADSVKGRFTISRDNSKNTLYLQMNSLRPEDTALYYCAADTLYTSLTWYSTWGQGTLVTVSS
notes: FLAG3-His6 tagged
With B13, the koff came out at 0.0017 s⁻¹ in experiment [1], 0.0012 s⁻¹ in experiment [2], 0.065 s⁻¹ in experiment [3] and 0.06 s⁻¹ in experiment [4]. For the same molecule, the “kd ratio pH 7.4/6.0” value was found to be 38 in experiment [5] and 50 in experiment [6].

B14: T026301071 (VHH, name in Kabat numbering)
VHH: EVQLVESGGGVVQPGGSLRLSCAASTFTFSEYAMYWVRQAPGKGLEWVSAISSGGGSTDYADSVKGRFTISRDNSKNTLYLQMNSLRPEDTALYYCAADTLYTDLTSYSYWGQGTLVTVSS
notes: tagless
In turn, B14 gave a koff in experiment [7] of 0.049 s⁻¹.

B15: T0263018B11 Y98F (VHH, name in Kabat numbering)
VHH: EVQLVESGGGVVQPGGSLRLSCAASGFTFSSYAMYWVRQAPGKGLEWVSAISSGGGSTDYADSVKGRFTISRDNSKNTLYLQMNSLRPEDTALYYCAADTLFTSLTWYSYWGQGTLVTVSS
notes: FLAG3-His6 tagged
For the molecule B15, the koff in experiment [1] came out at 0.00053 s⁻¹; in experiment [2] it was 0.00026 s⁻¹; in experiment [3], 0.04 s⁻¹; in experiment [4] it was 0.022 s⁻¹. Further, the “kd ratio pH 7.4/6.0” value is 75 in experiment [5] and 84 in experiment [6].

B16: T0263018B11 Y32T (VHH, name in Kabat numbering)
VHH: EVQLVESGGGVVQPGGSLRLSCAASGFTFSSTAMYWVRQAPGKGLEWVSAISSGGGSTDYADSVKGRFTISRDNSKNTLYLQMNSLRPEDTALYYCAADTLYTSLTWYSYWGQGTLVTVSS
notes: FLAG3-His6 tagged
As to B16, the koff in experiment [1] is 0.0045 s⁻¹; in experiment [2], 0.0035 s⁻¹; in experiment [3] it was 0.19 s⁻¹; in experiment [4] it was 0.21 s⁻¹. The “kd ratio pH 7.4/6.0” value in experiment [5] stood at 42; in experiment [6], 60.

B17: T0263018B11 Y32V (VHH, name in Kabat numbering)
VHH: EVQLVESGGGVVQPGGSLRLSCAASGFTFSSVAMYWVRQAPGKGLEWVSAISSGGGSTDYADSVKGRFTISRDNSKNTLYLQMNSLRPEDTALYYCAADTLYTSLTWYSYWGQGTLVTVSS
notes: FLAG3-His6 tagged
For B17, the koff in experiment [1] was 0.004 s⁻¹; in experiment [2], 0.0022 s⁻¹; in experiment [3], 0.048 s⁻¹; in experiment [4], 0.13 s⁻¹. The entries for the “kd ratio pH 7.4/6.0” value in experiment [5] and in experiment [6] were 12 and 60, respectively.

B18: T026301078 (VHH, name in Kabat numbering)
VHH: EVQLVESGGGVVQPGGSLRLSCAASGFTFSEYDMYWVRQAPGKGLEWVSAISQGGGSTDYADSVKGRFTISRDNSKNTLYLQMNSLRPEDTALYYCAADTLYTDLTWYSYWGQGTLVTVSS
notes: tagless
B18 showed a koff in experiment [7] of 0.0095 s⁻¹.

B19: T0263018B11 Y35F (VHH, name in Kabat numbering)
VHH: EVQLVESGGGVVQPGGSLRLSCAASGFTFSSYAMFWVRQAPGKGLEWVSAISSGGGSTDYADSVKGRFTISRDNSKNTLYLQMNSLRPEDTALYYCAADTLYTSLTWYSYWGQGTLVTVSS
notes: FLAG3-His6 tagged
As for B19, the koff in experiment [1] is 0.0043 s⁻¹; in experiment [2], 0.0035 s⁻¹; in experiment [3], 0.14 s⁻¹; in experiment [4], 0.16 s⁻¹. Further, the “kd ratio pH 7.4/6.0” value in experiment [5] turned out to be 33; in experiment [6], 46.
